B1: Ribonucleoside-diphosphate reductase large subunit (Human herpesvirus 2 (strain HG52) (HHV-2)), P89462 (parent)
chain: MANRPAASALAGARSPSERQEPREPEVAPPGGDHVFCRKVSGVMVLSSDPPGPAAYRISDSSFVQCGSNCSMIIDGDVARGHLRDLEGATSTGAFVAISNVAAGGDGRTAVVALGGTSGPSATTSVGTQTSGEFLHGNPRTPEPQGPQAVPPPPPPPFPWGHECCARRDARGGAEKDVGAAESWSDGPSSDSETEDSDSSDEDTGSETLSRSSSIWAAGATDDDDSDSDSRSDDSVQPDVVVRRRWSDGPAPVAFPKPRRPGDSPGNPGLGAGTGPGSATDPRASADSDSAAHAAAPQADVAPVLDSQPTVGTDPGYPVPLELTPENAEAVARFLGDAVDREPALMLEYFCRCAREESKRVPPRTFGSAPRLTEDDFGLLNYALAEMRRLCLDLPPVPPNAYTPYHLREYATRLVNGFKPLVRRSARLYRILGVLVHLRIRTREASFEEWMRSKEVDLDFGLTERLREHEAQLMILAQALNPYDCLIHSTPNTLVERGLQSALKYEEFYLKRFGGHYMESVFQMYTRIAGFLACRATRGMRHIALGRQGSWWEMFKFFFHRLYDHQIVPSTPAMLNLGTRNYYTSSCYLVNPQATTNQATLRAITGNVSAILARNGGIGLCMQAFNDASPGTASIMPALKVLDSLVAAHNKQSTRPTGACVYLEPWHSDVRAVLRMKGVLAGEEAQRCDNIFSALWMPDLFFKRLIRHLDGEKNVTWSLFDRDTSMSLADFHGEEFEKLYEHLEAMGFGETIPIQDLAYAIVRSAATTGSPFIMFKDAVNRHYIYDTQGAAIAGSNLCTEIVHPASKRSSGVCNLGSVNLARCVSRQTFDFGRLRDAVQACVLMVNIMIDSTLQPTPQCTRGNDNLRSMGIGMQGLHTACLKMGLDLESAEFRDLNTHIAEVMLLAAMKTSNALCVRGARPFSHFKRSMYRAGRFHWERFSNASPRYEGEWEMLRQSMMKHGLRNSQFIALMPTAASAQISDVSEGFAPLFTNLFSKVTRDGETLRPNTLLLKELERTFGGKRLLDAMDGLEAKQWSVAQALPCLDPAHPLRRFKTAFDYDQELLIDLCADRAPYVDHSQSMTLYVTEKADGTLPASTLVRLLVHAYKRGLKTGMYYCKVRKATNSGVFAGDDNIVCTSCAL

In this test the parent is B1. Conditions: with ripk3_human RIPK3, Q9Y572.
Sequence of ripk3_human RIPK3, Q9Y572 (Q9Y572 whole entry, looked up): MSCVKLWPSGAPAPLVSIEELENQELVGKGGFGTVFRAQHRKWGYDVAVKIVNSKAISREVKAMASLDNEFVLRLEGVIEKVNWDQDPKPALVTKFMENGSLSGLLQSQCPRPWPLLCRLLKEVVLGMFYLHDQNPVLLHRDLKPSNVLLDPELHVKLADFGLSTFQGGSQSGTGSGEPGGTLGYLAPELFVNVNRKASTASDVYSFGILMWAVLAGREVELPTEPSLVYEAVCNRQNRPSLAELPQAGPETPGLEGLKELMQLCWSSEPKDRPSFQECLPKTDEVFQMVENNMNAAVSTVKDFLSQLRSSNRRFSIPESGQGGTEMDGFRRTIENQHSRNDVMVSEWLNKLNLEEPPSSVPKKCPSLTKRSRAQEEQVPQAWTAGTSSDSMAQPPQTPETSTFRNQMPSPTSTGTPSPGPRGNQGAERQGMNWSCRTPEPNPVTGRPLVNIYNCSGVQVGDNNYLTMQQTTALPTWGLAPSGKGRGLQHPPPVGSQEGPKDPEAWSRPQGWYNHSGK
V64A;Q65A;C66A;G67A: the “effect of a mutation on the interaction” value is recorded as “decreasing interaction strength”.
